Data: PMC3518436

Target: beclin 1 (UniProt O88597)
Test: anti-BCL2 IP, beclin 1 blot
Details: sites T69,S70,S84

| binding against the reference (reference: wild-type MEFs, starved) | binding against the reference (reference: wild-type muscle, exercised) | Substance |
| --- | --- | --- |
| stronger |  | BCL2 (from UniProt P10417) BCL2 AAA MEFs, starved |
|  | stronger | BCL2 (from UniProt P10417) BCL2 AAA muscle, exercised |
